Measurements taken from article PMC5269733, “RNA helicase DDX3 maintains lipid homeostasis through upregulation of the microsomal triglyceride transfer protein by interacting with HNF4 and SHP” (Scientific Reports, 2017).

Target: T1, HA-tagged HNF4 (hepatocyte nuclear factor 4) (UniProt P41235 1-474)
T1 sequence (looked up): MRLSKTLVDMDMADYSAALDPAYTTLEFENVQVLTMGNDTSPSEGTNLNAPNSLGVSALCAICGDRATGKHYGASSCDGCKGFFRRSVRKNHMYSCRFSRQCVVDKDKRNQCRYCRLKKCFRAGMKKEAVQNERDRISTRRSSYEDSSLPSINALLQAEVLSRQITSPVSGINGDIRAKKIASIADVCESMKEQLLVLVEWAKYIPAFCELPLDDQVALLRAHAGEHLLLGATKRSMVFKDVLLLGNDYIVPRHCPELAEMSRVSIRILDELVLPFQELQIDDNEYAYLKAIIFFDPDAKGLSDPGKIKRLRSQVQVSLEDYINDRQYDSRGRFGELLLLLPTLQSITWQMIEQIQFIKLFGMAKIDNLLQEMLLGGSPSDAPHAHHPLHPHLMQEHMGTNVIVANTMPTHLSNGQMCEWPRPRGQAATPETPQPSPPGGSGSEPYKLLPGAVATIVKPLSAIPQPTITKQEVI
Test: cell-based or functional assay

B1: HA-tagged DDX3 (natural protein, UniProt O00571 1-662, looked up)
chain: MSHVAVENALGLDQQFAGLDLNSSDNQSGGSTASKGRYIPPHLRNREATKGFYDKDSSGWSSSKDKDAYSSFGSRSDSRGKSSFFSDRGSGSRGRFDDRGRSDYDGIGSRGDRSGFGKFERGGNSRWCDKSDEDDWSKPLPPSERLEQELFSGGNTGINFEKYDDIPVEATGNNCPPHIESFSDVEMGEIIMGNIELTRYTRPTPVQKHAIPIIKEKRDLMACAQTGSGKTAAFLLPILSQIYSDGPGEALRAMKENGRYGRRKQYPISLVLAPTRELAVQIYEEARKFSYRSRVRPCVVYGGADIGQQIRDLERGCHLLVATPGRLVDMMERGKIGLDFCKYLVLDEADRMLDMGFEPQIRRIVEQDTMPPKGVRHTMMFSATFPKEIQMLARDFLDEYIFLAVGRVGSTSENITQKVVWVEESDKRSFLLDLLNATGKDSLTLVFVETKKGADSLEDFLYHEGYACTSIHGDRSQRDREEALHQFRSGKSPILVATAVAARGLDISNVKHVINFDLPSDIEEYVHRIGRTGRVGNLGLATSFFNERNINITKDLLDLLVEAKQEVPSWLENMAYEHHYKGSSRGRSKSSRFSGGFGARDYRQSSGASSSSFSSSRASSSRSGGGGHGSSRGFGGGGYGGFYNSDGYGGNYNSQGVDWWGN
- luciferase activity of pGL2/MTP-Luc(-611/+87) in HuH7 cells, HA-HNF4 with increasing HA-DDX3 against HA-HNF4 alone (2.4- to 8.9-fold, DDX3 dose-dependent): 8.9 fold
